Test results: US20260108607A1 (BEIJING DCTY BIOTECH, published 2026)
Numbering of substitutions follows the chain as printed.

B1: murine antibody 20-2-1 (clone 83F7B2) (antibody, V domains shown)
VH: QIQLVQSGPELKKPGETVKISCKASGYTFTDFSMHWVKQAPGKGLKWMGWINTETGEPSYADDFKGRFAFSLETSASTAYLQINNLKNEDTATYFCANYGYDVRGDYWGQGTTLTVSS
VL: EIVLTQSPTTMAASPGEKITITCSASSSISSNYLHWYQQKPGFSPKLLIYGTSNLASGVPARFSGSGSGTSYSLTIGTMEAEDVATYYCHQGSSIPLTFGAGTKLELK
notes: Murine monoclonal antibody purified from the subclone supernatant
B2: murine antibody 20-2-4 (clone 88A3C8) (antibody, V domains shown)
VH: EVQLQQSGAELVRPGALVKLSCKASGFNIKDYYMHWVKQRPEQGLEWIGWIDPENGNTIYDPKFQGKASITADTSSNTAYLQLSSLTSEDTAVYYCARGWFAYWGQGTLVTVSA
VL: DILMTQSPSSLAMSVGQKVTMSCKSSQSLLNSSNQKNHLAWYQQKPGQSPKLLVYFASTRASGVPDRFIGSGSGTDFTLTISSVQAEDLADYFCQQHYSTPLTFGAGTKLELK
notes: Murine monoclonal antibody purified from the subclone supernatant; also called clone #4
B3: murine antibody 20-2-28 (clone 84C3G8H7) (antibody, V domains shown)
VH: B2 VH
VL: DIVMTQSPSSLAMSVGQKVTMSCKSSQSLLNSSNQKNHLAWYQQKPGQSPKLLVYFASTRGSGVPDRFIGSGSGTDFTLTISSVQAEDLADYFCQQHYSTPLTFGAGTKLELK
notes: Murine monoclonal antibody purified from the subclone supernatant; also called clone #28
B4: 20-2-13 (antibody, V domains shown)
VH: QVQLQQPGAELVKPGASVKLSCKASGYSFTRYWMHWVKQRPGQGLEWIGEINPSNGRANYNEKFMSKATLTVDKSSSTAYMQLSSLTSEDSAVYYCARGREITTGFAYWGQGTLVTVSA
VL: SIVMTQTPKFLLVSAGDRVTITCKASQSVSNDVVWYQQKPGQSPKLLIYYASNRYTGVPDRFTGSGYGTDFTFTITTVQAEDLAVYFCQQDYSSPWTFGGGTKLEIK
notes: also called 90F6C1
B5: humanized antibody 40-2-H11 (98G2E9-VH5 + VL7) (scFv)
scFv: EVQLLESGGGLVQPGGSLKLSCAASGFTFSGYAMSWVRQTPGKGLEWVATITSGGSYTYYPDSVKGRFTISRDNSKNTLYLQMNSLRAEDTAMYYCARKDYGNYWFAYWGQGTLVTVSSGGGGSGGGGSGGGGSGGGGSDVVMTQSPLSLPVTLGDQASISCRSSQSLVHSDGNTYLHWYLQKPGQSPKLLIYKVSNRFSGVPDRFSGSGSGTDFTLKISRVEAEDVGVYFCSQTTQVPWTFGGGTKLEIK
notes: the format in the SPR assay is not clearly stated
B6: humanized antibody 40-2-H12 (98G2E9-VH6 + VL5) (scFv)
scFv: B5 scFv with G42E, S75A, Q157P, K183R, K189R
notes: as for B5
B7: humanized antibody 40-2-H9 (98G2E9-VH5 + VL5) (scFv)
scFv: B5 scFv with Q157P, K183R, K189R
notes: as for B5
B8: humanized antibody 40-2-H13 (98G2E9-VH6 + VL6) (scFv)
scFv: B5 scFv with G42E, S75A, D156Q
notes: as for B5
B9: humanized antibody 40-2-H10 (98G2E9-VH5 + VL6) (scFv)
scFv: B5 scFv with D156Q
notes: as for B5

The binders below were run against T1, EGFRvIII target antigen (SPR ligand) (UniProt P00533 25-645, limits assumed) (assay: SPR; EGFRvIII as ligand, antibody as analyte).
T1 construct: also called EGFRvIII antigen
For B1, the Kd was 23.7 nM, the koff was 0.00119 s⁻¹ and the kon was 50100 M⁻¹ s⁻¹.
In the case of B2, the koff is reported as 0.00864 s⁻¹.
In the case of B3, the koff is reported as 0.0165 s⁻¹.

Each binder was assayed against T2, EGFRvIII overexpressed on target cells (UniProt P00533 25-1210) (assay: flow cytometry of the subclone supernatant on F98npEGFRvIII cells (Geom mean)).
T2 construct: whole, on cells; Same protein on two cell lines: F98npEGFRvIII for flow cytometry, U87MG-EGFRvIII for the killing assays; also called F98npEGFRvIII; U87MG-EGFRvIII
B4: binds.

Each binder was assayed against T3, EGFR (wild type) expressed on target cells (UniProt P00533 25-1210, limits assumed) (assay: flow cytometry of the subclone supernatant on F98npEGFR cells (Geom mean)).
T3 construct: whole, on cells; also called F98npEGFR; U87MG-EGFR
B1: no binding.
B4: no binding.
B2: no binding.
B3: no binding.

These binders were tested against T1, EGFRvIII target antigen (SPR ligand) (assay: SPR).
For B5, the “fold reduction of affinity against the murine antibody from clone #40-2” value (shortened to “fold reduction of affinity”) was about 2 fold.
For B6, the “fold reduction of affinity” value was about 2 fold.
For B7, the “fold reduction of affinity” value was about 2 fold.
B8 was tested, and the “fold reduction of affinity” value was about 2 fold.
With B9 the “fold reduction of affinity” value was about 2 fold.

Each binder was assayed against T1, EGFRvIII target antigen (SPR ligand) (assay: SPR; antibody as analyte).
B5 showed a Kd of 138 nM, a koff of 0.00343 s⁻¹ and a kon of 24800 M⁻¹ s⁻¹.
B6 was tested, and the Kd was 102 nM, the koff was 0.00266 s⁻¹ and the kon was 26000 M⁻¹ s⁻¹.
Work on B7 yielded a Kd of 112 nM, a koff of 0.00307 s⁻¹ and a kon of 27400 M⁻¹ s⁻¹.
With B8 the Kd was 102 nM, the koff was 0.00301 s⁻¹ and the kon was 29400 M⁻¹ s⁻¹.
For B9, the Kd was 135 nM, the koff was 0.00345 s⁻¹ and the kon was 25600 M⁻¹ s⁻¹.
